Laboratory results taken from paper PMC9482650, “Quantitative fragmentomics allow affinity mapping of interactomes” (Nature Communications, 2022).

T1: DLG3_3, Q92796
T1 sequence (Q92796 374-475, limits assumed, looked up): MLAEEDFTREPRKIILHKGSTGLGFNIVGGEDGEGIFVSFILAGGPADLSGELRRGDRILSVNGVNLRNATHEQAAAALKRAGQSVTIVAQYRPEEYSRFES

T2: SNTG2, Q9NY99
T2 sequence (Q9NY99 68-166, limits assumed, looked up): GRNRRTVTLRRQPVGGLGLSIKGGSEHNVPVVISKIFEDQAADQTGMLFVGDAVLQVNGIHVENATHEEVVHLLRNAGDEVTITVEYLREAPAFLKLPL

T3: DFNB31_1, Q9P202
T3 sequence (Q9P202 135-233, limits assumed, looked up): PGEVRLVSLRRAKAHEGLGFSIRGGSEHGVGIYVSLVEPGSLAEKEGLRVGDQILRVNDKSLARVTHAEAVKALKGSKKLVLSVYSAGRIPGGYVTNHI

T4: DVL3, Q92997
T4 sequence (Q92997 244-331, limits assumed, looked up): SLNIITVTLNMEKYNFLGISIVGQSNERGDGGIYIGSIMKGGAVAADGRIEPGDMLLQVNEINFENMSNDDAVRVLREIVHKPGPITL

T5: SNTA1, Q13424
T5 sequence (Q13424 82-180, limits assumed, looked up): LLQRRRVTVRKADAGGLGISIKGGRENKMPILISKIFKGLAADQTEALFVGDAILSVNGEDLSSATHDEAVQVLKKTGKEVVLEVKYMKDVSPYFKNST

T6: LIN7B, Q9HAP6
T6 sequence (Q9HAP6 88-185, limits assumed, looked up): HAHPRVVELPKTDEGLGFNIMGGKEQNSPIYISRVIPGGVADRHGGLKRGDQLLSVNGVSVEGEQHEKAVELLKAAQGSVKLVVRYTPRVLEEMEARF

T7: TIAM2, Q8IVF5
T7 sequence (Q8IVF5 885-986, limits assumed, looked up): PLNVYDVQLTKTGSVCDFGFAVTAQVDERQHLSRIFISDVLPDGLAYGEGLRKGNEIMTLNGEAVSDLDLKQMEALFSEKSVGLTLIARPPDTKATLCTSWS

T8: HTRA4, P83105
T8 sequence (P83105 378-476, limits assumed, looked up): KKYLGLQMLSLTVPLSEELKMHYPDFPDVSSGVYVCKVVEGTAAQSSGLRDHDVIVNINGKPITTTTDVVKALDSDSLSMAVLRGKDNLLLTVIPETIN

T9: MPDZ_10, O75970
T9 sequence (O75970 1624-1722, limits assumed, looked up): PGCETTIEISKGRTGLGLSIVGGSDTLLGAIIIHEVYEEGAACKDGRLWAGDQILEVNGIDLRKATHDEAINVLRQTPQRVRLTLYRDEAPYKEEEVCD

T10: DFNB31_2, Q9P202
T10 sequence (Q9P202 274-371, limits assumed, looked up): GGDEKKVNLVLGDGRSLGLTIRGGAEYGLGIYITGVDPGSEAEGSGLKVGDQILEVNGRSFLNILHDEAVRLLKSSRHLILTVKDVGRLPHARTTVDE

T11: SNTG1, Q9NSN8
T11 sequence (Q9NSN8 52-150, limits assumed, looked up): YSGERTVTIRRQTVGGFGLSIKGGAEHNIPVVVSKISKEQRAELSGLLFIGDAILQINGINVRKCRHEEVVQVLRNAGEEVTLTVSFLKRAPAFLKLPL

T12: NHERF3_1, Q5T2W1
T12 sequence (Q5T2W1 4-100, limits assumed, looked up): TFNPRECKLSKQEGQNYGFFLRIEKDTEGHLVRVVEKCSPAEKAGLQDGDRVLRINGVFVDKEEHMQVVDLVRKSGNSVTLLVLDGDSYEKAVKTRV

T13: RAPGEF6, Q8TEU7
T13 sequence (Q8TEU7 525-625, limits assumed, looked up): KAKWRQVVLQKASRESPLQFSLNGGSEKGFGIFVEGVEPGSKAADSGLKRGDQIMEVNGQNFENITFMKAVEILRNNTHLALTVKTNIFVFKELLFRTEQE

B1: TYRP1, P17643 (peptide)
chain: KLQNPNQSVV
B2: KIT, P10721 (peptide)
chain: SQPLLVHDDV
B3: PRKN, O60260 (peptide)
chain: VCMGDHWFDV

target: T1, DLG3_3, Q92796; experiment: holdup assay; design: key: below the threshold = too weak to quantify, mostly under pKd 3.1 to 4; conditions: plain residues with an end cap or a label only (N-terminal biotin on a linker: ado-ado)

pKd | Binder
below the threshold | B1
below the threshold | B2
below the threshold | B3

target: NOS1, P29475; experiment: holdup assay; design: key: below the threshold = too weak to quantify, mostly under pKd 3.1 to 4; conditions: plain residues with an end cap or a label only (N-terminal biotin on a linker: ado-ado)
Sequence (P29475 9-101): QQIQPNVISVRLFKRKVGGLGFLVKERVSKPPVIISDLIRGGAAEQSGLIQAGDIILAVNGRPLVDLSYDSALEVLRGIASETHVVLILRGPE

pKd | Binder
below the threshold | B1
below the threshold | B2
3.51 | B3

target: T2, SNTG2, Q9NY99; experiment: holdup assay; design: key: below the threshold = too weak to quantify, mostly under pKd 3.1 to 4; conditions: plain residues with an end cap or a label only (N-terminal biotin on a linker: ado-ado)

pKd | Binder
3.64 | B1
below the threshold | B2
below the threshold | B3

target: Inadl_8, Q8NI35; experiment: holdup assay; design: key: below the threshold = too weak to quantify, mostly under pKd 3.1 to 4; conditions: plain residues with an end cap or a label only (N-terminal biotin on a linker: ado-ado)
Sequence (Q8NI35 1425-1530): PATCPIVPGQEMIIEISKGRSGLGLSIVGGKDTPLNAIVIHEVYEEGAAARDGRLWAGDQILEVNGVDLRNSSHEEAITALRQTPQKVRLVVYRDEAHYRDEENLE

pKd | Binder
3.97 | B1
4.94 | B2
3.66 | B3

target: FRMPD2_3, Q68DX3; experiment: holdup assay; design: key: below the threshold = too weak to quantify, mostly under pKd 3.1 to 4; conditions: plain residues with an end cap or a label only (N-terminal biotin on a linker: ado-ado)
Sequence (Q68DX3 1073-1166): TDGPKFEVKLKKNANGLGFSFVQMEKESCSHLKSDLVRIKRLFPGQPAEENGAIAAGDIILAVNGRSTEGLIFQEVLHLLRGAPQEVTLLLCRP

pKd | Binder
below the threshold | B1
below the threshold | B2
3.58 | B3

target: T3, DFNB31_1, Q9P202; experiment: holdup assay; design: key: below the threshold = too weak to quantify, mostly under pKd 3.1 to 4; conditions: plain residues with an end cap or a label only (N-terminal biotin on a linker: ado-ado)

pKd | Binder
3.61 | B1
below the threshold | B2
below the threshold | B3

target: T4, DVL3, Q92997; experiment: holdup assay; design: key: below the threshold = too weak to quantify, mostly under pKd 3.1 to 4; conditions: plain residues with an end cap or a label only (N-terminal biotin on a linker: ado-ado)

pKd | Binder
below the threshold | B1
below the threshold | B2
3.59 | B3

target: PARD3_3, Q8TEW0; experiment: holdup assay; design: key: below the threshold = too weak to quantify, mostly under pKd 3.1 to 4; conditions: plain residues with an end cap or a label only (N-terminal biotin on a linker: ado-ado)
Sequence (Q8TEW0 582-685): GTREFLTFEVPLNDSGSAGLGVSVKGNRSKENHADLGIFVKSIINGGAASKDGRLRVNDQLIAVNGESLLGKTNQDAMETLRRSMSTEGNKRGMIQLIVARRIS

pKd | Binder
below the threshold | B1
below the threshold | B2
4.25 | B3

target: IL16_4, Q14005; experiment: holdup assay; design: key: below the threshold = too weak to quantify, mostly under pKd 3.1 to 4; conditions: plain residues with an end cap or a label only (N-terminal biotin on a linker: ado-ado)
Sequence (Q14005 1229-1329): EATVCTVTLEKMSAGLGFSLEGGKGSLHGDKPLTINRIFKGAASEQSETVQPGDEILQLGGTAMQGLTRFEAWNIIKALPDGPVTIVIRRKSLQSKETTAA

pKd | Binder
below the threshold | B1
below the threshold | B2
below the threshold | B3

target: T5, SNTA1, Q13424; experiment: holdup assay; design: key: below the threshold = too weak to quantify, mostly under pKd 3.1 to 4; conditions: plain residues with an end cap or a label only (N-terminal biotin on a linker: ado-ado)

pKd | Binder
3.99 | B1
below the threshold | B2
below the threshold | B3

target: T6, LIN7B, Q9HAP6; experiment: holdup assay; design: key: below the threshold = too weak to quantify, mostly under pKd 3.1 to 4; conditions: plain residues with an end cap or a label only (N-terminal biotin on a linker: ado-ado)

pKd | Binder
below the threshold | B1
below the threshold | B2
below the threshold | B3

target: SCRIB_1, Q14160; experiment: holdup assay; design: key: below the threshold = too weak to quantify, mostly under pKd 3.1 to 4; conditions: plain residues with an end cap or a label only (N-terminal biotin on a linker: ado-ado)
Sequence (Q14160 718-814): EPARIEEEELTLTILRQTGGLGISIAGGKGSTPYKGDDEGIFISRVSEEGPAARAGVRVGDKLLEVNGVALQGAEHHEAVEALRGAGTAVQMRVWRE

pKd | Binder
3.52 | B1
below the threshold | B2
3.55 | B3

target: T7, TIAM2, Q8IVF5; experiment: holdup assay; design: key: below the threshold = too weak to quantify, mostly under pKd 3.1 to 4; conditions: plain residues with an end cap or a label only (N-terminal biotin on a linker: ado-ado)

pKd | Binder
below the threshold | B1
below the threshold | B2
below the threshold | B3

target: T8, HTRA4, P83105; experiment: holdup assay; design: key: below the threshold = too weak to quantify, mostly under pKd 3.1 to 4; conditions: plain residues with an end cap or a label only (N-terminal biotin on a linker: ado-ado)

pKd | Binder
3.94 | B1
3.88 | B2
3.98 | B3

target: T9, MPDZ_10, O75970; experiment: holdup assay; design: key: below the threshold = too weak to quantify, mostly under pKd 3.1 to 4; conditions: plain residues with an end cap or a label only (N-terminal biotin on a linker: ado-ado)

pKd | Binder
3.54 | B1
3.93 | B2
below the threshold | B3

target: T10, DFNB31_2, Q9P202; experiment: holdup assay; design: key: below the threshold = too weak to quantify, mostly under pKd 3.1 to 4; conditions: plain residues with an end cap or a label only (N-terminal biotin on a linker: ado-ado)

pKd | Binder
below the threshold | B1
below the threshold | B2
below the threshold | B3

target: T11, SNTG1, Q9NSN8; experiment: holdup assay; design: key: below the threshold = too weak to quantify, mostly under pKd 3.1 to 4; conditions: plain residues with an end cap or a label only (N-terminal biotin on a linker: ado-ado)

pKd | Binder
3.47 | B1
below the threshold | B2
3.81 | B3

target: T12, NHERF3_1, Q5T2W1; experiment: holdup assay; design: key: below the threshold = too weak to quantify, mostly under pKd 3.1 to 4; conditions: plain residues with an end cap or a label only (N-terminal biotin on a linker: ado-ado)

pKd | Binder
below the threshold | B1
below the threshold | B2
below the threshold | B3

target: IL16_1, Q14005; experiment: holdup assay; design: key: below the threshold = too weak to quantify, mostly under pKd 3.1 to 4; conditions: plain residues with an end cap or a label only (N-terminal biotin on a linker: ado-ado)
Sequence (Q14005 210-306): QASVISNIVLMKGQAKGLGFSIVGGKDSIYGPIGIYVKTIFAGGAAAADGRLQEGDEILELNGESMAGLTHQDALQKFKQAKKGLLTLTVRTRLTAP

pKd | Binder
3.94 | B1
below the threshold | B2
below the threshold | B3

target: T13, RAPGEF6, Q8TEU7; experiment: holdup assay; design: key: below the threshold = too weak to quantify, mostly under pKd 3.1 to 4; conditions: plain residues with an end cap or a label only (N-terminal biotin on a linker: ado-ado)

pKd | Binder
below the threshold | B1
below the threshold | B2
below the threshold | B3

target: GORASP2, Q9H8Y8; experiment: holdup assay; design: key: below the threshold = too weak to quantify, mostly under pKd 3.1 to 4; conditions: plain residues with an end cap or a label only (N-terminal biotin on a linker: ado-ado)

pKd | Binder
3.73 | B1
below the threshold | B2
4.77 | B3

target: LIMK2, P53671; experiment: holdup assay; design: key: below the threshold = too weak to quantify, mostly under pKd 3.1 to 4; conditions: plain residues with an end cap or a label only (N-terminal biotin on a linker: ado-ado)
Sequence (P53671 143-248): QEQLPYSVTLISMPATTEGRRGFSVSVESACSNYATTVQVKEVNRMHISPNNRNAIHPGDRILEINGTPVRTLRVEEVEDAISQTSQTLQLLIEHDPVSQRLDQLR

pKd | Binder
below the threshold | B1
below the threshold | B2
below the threshold | B3

target: GRIP2_5, Q9C0E4; experiment: holdup assay; design: key: below the threshold = too weak to quantify, mostly under pKd 3.1 to 4; conditions: plain residues with an end cap or a label only (N-terminal biotin on a linker: ado-ado)
Sequence (Q9C0E4 544-642): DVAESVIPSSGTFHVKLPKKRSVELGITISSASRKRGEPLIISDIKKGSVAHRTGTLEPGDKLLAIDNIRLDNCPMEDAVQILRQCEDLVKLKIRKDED

pKd | Binder
below the threshold | B1
below the threshold | B2
below the threshold | B3

target: DLG5_1, Q8TDM6; experiment: holdup assay; design: key: below the threshold = too weak to quantify, mostly under pKd 3.1 to 4; conditions: plain residues with an end cap or a label only (N-terminal biotin on a linker: ado-ado)
Sequence (Q8TDM6 617-713): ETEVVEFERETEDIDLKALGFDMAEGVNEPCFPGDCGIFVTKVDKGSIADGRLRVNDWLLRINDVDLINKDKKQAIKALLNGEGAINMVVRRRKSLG

pKd | Binder
below the threshold | B1
below the threshold | B2
below the threshold | B3

target: PDLIM1, O00151; experiment: holdup assay; design: key: below the threshold = too weak to quantify, mostly under pKd 3.1 to 4; conditions: plain residues with an end cap or a label only (N-terminal biotin on a linker: ado-ado)
Sequence (O00151 1-87): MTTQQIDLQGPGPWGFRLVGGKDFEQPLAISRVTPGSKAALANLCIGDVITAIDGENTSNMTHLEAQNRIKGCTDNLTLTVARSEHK

pKd | Binder
below the threshold | B1
below the threshold | B2
3.83 | B3
